Assay results from patent publication US20240383990A1 (DIAGONAL THERAPEUTICS, published 2024).
Read-outs that look alike come from different tables or passages of the source. Values belong to the binder of their own block, whether it stands above or below them.

What was measured:
Assay in all cases: cell-based or functional assay
[1] = biological target: T1, ALK1 / BMPRII receptor pair (BMPR Type I receptor ALK1 and BMPR Type II receptor BMPRII) on cells (UniProt P37023 22-503; Q13873 27-1038, limits assumed)
[2] = biological target: T1, ALK1 / BMPRII receptor pair (BMPR Type …); remark: listed apart in the source
[3] = biological target: T2, IL-18 receptor (IL-18Rα and IL-18Rβ) on HEK-Blue IL-18 cells (UniProt Q13478 19-541; O95256 20-599, limits assumed)
T2 sequence (looked up) 1: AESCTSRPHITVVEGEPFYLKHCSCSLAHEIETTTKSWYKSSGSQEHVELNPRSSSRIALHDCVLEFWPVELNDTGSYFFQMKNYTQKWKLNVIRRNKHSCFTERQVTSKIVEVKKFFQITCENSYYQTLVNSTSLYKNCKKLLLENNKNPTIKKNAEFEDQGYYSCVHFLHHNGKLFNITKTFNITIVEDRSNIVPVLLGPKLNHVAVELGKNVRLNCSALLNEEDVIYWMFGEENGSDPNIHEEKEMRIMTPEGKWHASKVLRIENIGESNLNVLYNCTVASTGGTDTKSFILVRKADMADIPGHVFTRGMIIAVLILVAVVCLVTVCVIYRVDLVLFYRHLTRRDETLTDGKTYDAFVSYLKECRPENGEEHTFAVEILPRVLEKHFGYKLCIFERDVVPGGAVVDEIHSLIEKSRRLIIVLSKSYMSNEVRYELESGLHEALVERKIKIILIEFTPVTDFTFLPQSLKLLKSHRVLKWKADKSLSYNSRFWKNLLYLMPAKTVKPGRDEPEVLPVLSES
T2 sequence (looked up) 2: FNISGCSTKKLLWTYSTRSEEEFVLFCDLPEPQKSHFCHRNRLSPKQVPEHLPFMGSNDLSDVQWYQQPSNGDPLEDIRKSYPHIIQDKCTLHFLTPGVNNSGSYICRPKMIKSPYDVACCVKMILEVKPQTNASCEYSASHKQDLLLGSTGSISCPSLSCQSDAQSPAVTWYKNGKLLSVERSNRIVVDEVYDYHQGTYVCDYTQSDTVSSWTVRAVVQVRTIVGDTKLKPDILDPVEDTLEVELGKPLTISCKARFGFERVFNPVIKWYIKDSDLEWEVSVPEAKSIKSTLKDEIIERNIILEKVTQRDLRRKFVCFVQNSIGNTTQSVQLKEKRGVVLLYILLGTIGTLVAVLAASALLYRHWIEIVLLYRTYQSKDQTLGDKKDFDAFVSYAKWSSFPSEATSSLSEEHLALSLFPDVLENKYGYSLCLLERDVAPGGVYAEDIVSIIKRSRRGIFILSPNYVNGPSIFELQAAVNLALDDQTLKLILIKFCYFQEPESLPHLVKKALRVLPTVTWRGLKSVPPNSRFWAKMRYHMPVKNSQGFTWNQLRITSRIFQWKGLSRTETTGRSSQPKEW

[4] = biological target: T1, ALK1 / BMPRII receptor pair (BMPR Type …); remark: listed apart in the source

T1 sequence (P37023 22-503 limits assumed, chain 1 of 2): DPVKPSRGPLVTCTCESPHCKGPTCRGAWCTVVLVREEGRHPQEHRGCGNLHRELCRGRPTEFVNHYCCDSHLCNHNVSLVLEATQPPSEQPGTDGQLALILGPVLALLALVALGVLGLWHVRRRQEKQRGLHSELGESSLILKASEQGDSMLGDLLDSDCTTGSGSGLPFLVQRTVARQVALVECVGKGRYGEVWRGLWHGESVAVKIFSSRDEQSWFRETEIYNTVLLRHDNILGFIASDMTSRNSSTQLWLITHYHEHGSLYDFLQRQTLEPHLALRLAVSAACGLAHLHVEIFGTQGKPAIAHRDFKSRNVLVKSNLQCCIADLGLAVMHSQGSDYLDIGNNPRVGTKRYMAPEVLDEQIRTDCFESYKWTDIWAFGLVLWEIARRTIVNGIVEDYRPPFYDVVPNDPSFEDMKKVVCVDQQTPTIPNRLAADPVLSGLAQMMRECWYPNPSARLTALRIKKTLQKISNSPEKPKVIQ
T1 sequence (Q13873 27-1038 limits assumed, chain 2 of 2): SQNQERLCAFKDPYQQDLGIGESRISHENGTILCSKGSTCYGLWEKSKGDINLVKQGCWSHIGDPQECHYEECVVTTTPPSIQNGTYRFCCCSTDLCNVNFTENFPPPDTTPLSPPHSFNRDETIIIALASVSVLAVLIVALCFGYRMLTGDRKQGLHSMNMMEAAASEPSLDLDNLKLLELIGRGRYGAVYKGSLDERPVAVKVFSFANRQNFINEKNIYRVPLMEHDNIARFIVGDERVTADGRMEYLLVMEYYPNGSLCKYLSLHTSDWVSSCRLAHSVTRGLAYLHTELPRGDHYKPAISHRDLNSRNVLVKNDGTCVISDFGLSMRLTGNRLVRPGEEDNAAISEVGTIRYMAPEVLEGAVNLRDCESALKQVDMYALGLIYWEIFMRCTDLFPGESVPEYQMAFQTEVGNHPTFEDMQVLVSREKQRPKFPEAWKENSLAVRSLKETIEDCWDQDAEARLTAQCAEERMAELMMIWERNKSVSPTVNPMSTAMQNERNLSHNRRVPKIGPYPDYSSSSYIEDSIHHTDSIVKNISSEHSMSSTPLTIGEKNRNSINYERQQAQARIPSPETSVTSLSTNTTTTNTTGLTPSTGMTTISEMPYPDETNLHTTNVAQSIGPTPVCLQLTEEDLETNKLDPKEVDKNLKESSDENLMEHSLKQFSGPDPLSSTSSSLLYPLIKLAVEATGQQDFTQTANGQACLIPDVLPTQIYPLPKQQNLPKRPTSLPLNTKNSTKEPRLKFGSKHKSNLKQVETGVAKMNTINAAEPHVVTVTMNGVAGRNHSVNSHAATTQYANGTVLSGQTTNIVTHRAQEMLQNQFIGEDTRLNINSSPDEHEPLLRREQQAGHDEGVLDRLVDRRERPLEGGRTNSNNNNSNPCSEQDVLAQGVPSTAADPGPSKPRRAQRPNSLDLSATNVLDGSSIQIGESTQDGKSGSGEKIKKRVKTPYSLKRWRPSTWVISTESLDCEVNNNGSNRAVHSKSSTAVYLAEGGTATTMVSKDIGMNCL

Agonist activity, % Emax BMP9 [1]: 35 % Emax BMP9 | Agonist activity, EC50 [1]: 0.075 nM | Agonist activity, EMAX (RLU) [1]: 931000 RLU | Agonist activity, % Emax BMP9 [2]: 35 % Emax BMP9 | Agonist activity, EC50 [2]: 0.075 nM | Agonist activity, EMAX (RLU) [2]: 931000 RLU
B1: PRO005 (bispecific antibody)
chain: EVQLLESGGGLVQPGGSLRLSCAASGFTFSSYAMSWVRQAPGKGLEWVANINQDGSEKNYVDSMRGRFTISRDNSKNTLYLQMNSLRAEDTAVYYCAREFDYWGQGTLVTVTSSGGGGSGGGGSGGGGSQSVLAQPPSASGTPGQRVTISCSGSSSNIGSNYVYWYQQLPGTAPKLLIYGNNKRPSGVPDRFSGSKSGTSASLAISGLRSEDEADYYCAAWDDSLNGRVFGGGTKLTVLDKTHTCPPCPAPEAAGAPSVFLFPPKPKDTLMISRTPEVTCVVVDVSHEDPEVKFNWYVDGVEVHNAKTKPREEQYNSTYRVVSVLTVLHQDWLNGKEYKCKVSNKALPAPIEKTISKAKGQPREPQVYTLPPSRDELTKNQVSLTCLVKGFYPSDIAVEWESNGQPENNYKTTPPVLDSDGSFFLYSKLTVDKSRWQQGNVFSCSVMHEALHNHYTQKSLSLSPGGGGGSGGGGSEVQLLESGGGLVQPGGSLRLSCAASGFTFSDYYMTWIRQAPGKGLEWVSSISGGSTYYADSRKGRFTISRDNSENTLYLQMNSLRAEDTAVYYCARDFGVAGWFGQYGMDVWGQGTLVTVSSGGGGSGGGGSGGGGSQSVLTQPPSASGTPGQRVTISCTGSSSNIGAGYDVHWYQQLPGTAPKLLIYRSNQRPSGVPDRFSGSKSGTSASLAISGLRSEDEADYYCSSYAGNYNLVFGGGTKLTVL

Agonist activity, % Emax BMP9 [1]: 46 % Emax BMP9 | Agonist activity, EC50 [1]: 0.5 nM | Agonist activity, EMAX (RLU) [1]: 1.21e+06 RLU | Agonist activity, % Emax BMP9 [2]: 46 % Emax BMP9 | Agonist activity, EC50 [2]: 0.5 nM | Agonist activity, EMAX (RLU) [2]: 1.21e+06 RLU
B3: PRO004 (bispecific antibody)
chain: EVQLLESGGGLVQPGGSLRLSCAASGFTFSNAWMNWVRQAPGKGLEWVSSISSSSSYIYYADSVKGRFTISRDNSKNTLYLQMNSLRAEDTAVYYCARAVAAGGMFWGLDQWGQGTLVTVTSSGGGGSGGGGSGGGGSQSVLTQPPSASGTPGQRVTISCSGSRSNIGSNSVHWYQQLPGTAPKLLIYGNSNRPSGVPDRFSGSKSGTSASLAISGLRSEDEADYYCQSYDSSLNDHVVFGGGTKLTVLDKTHTCPPCPAPEAAGAPSVFLFPPKPKDTLMISRTPEVTCVVVDVSHEDPEVKFNWYVDGVEVHNAKTKPREEQYNSTYRVVSVLTVLHQDWLNGKEYKCKVSNKALPAPIEKTISKAKGQPREPQVYTLPPSRDELTKNQVSLTCLVKGFYPSDIAVEWESNGQPENNYKTTPPVLDSDGSFFLYSKLTVDKSRWQQGNVFSCSVMHEALHNHYTQKSLSLSPGGGGGSGGGGSEVQLLESGGGLVQPGGSLRLSCAASGFTFSIYAMSWVRQAPGKGLEWVSAISGSGGSTYYADSVKGRFTISRDNSKNTLYLQMNSLRAEDTAVYYCARDFDYWGQGTLVTVTSSGGGGSGGGGSGGGGSQSVLTQPPSASGTPGQRVTISCSGSSSNIGSNYVYWYQQLPGTAPKLLIYGNINRPSGVPDRFSGSKSGTSASLAISGLRSEDEADYYCAAWDDSLNGRVFGGGTKLTVL

Agonist activity, % Emax BMP9 [1]: 35 % Emax BMP9 | Agonist activity, EC50 [1]: 0.1 nM | Agonist activity, EMAX (RLU) [1]: 929000 RLU | Agonist activity, % Emax BMP9 [2]: 35 % Emax BMP9 | Agonist activity, EC50 [2]: 0.1 nM | Agonist activity, EMAX (RLU) [2]: 929000 RLU
B5: PRO006 (bispecific antibody)
chain: EVQLLESGGGLVQPGGSLRLSCAASGFTFSDYYMTWIRQAPGKGLEWVSSISGGSTYYADSRKGRFTISRDNSENTLYLQMNSLRAEDTAVYYCARDFGVAGWFGQYGMDVWGQGTLVTVSSGGGGSGGGGSGGGGSQSVLTQPPSASGTPGQRVTISCTGSSSNIGAGYDVHWYQQLPGTAPKLLIYRSNQRPSGVPDRFSGSKSGTSASLAISGLRSEDEADYYCSSYAGNYNLVFGGGTKLTVLDKTHTCPPCPAPEAAGAPSVFLFPPKPKDTLMISRTPEVTCVVVDVSHEDPEVKFNWYVDGVEVHNAKTKPREEQYNSTYRVVSVLTVLHQDWLNGKEYKCKVSNKALPAPIEKTISKAKGQPREPQVYTLPPSRDELTKNQVSLTCLVKGFYPSDIAVEWESNGQPENNYKTTPPVLDSDGSFFLYSKLTVDKSRWQQGNVFSCSVMHEALHNHYTQKSLSLSPGGGGGSGGGGSEVQLLESGGGLVQPGGSLRLSCAASGFTFSSYAMSWVRQAPGKGLEWVANINQDGSEKNYVDSMRGRFTISRDNSKNTLYLQMNSLRAEDTAVYYCAREFDYWGQGTLVTVTSSGGGGSGGGGSGGGGSQSVLAQPPSASGTPGQRVTISCSGSSSNIGSNYVYWYQQLPGTAPKLLIYGNNKRPSGVPDRFSGSKSGTSASLAISGLRSEDEADYYCAAWDDSLNGRVFGGGTKLTVL

Continued, binder first:

B2: DGL208 (bispecific antibody)
chain 1: QVQLVESGGGLVQAGGSLRLSCAASGRTFSKHAMGWFRQAPGKEREFVAAIDWSGGSTYYADSVKGRFTISRDNAKNTVYLQMDSLKPEDTAVYYCAADSYTDYAQLWLPELESEYDYWGQGTLVTVSSPLAPDKTHTCPPCPAPEAAGAPSVFLFPPKPKDTLMISRTPEVTCVVVDVSHEDPEVKFNWYVDGVEVHNAKTKPREEQYNSTYRVVSVLTVLHQDWLNGKEYKCKVSNKALPAPIEKTISKAKGQPREPQVCTLPPSRDELTKNQVSLSCAVKGFYPSDIAVEWESNGQPENNYKTTPPVLDSDGSFFLVSKLTVDKSRWQQGNVFSCSVMHEALHNHYTQKSLSLSPGWSHPQFEK
chain 2: not shown
HEK-Blue assay, % human IL-18 [3]: 44 % of human IL18 activity

B4: DGL288 (bispecific antibody)
chain: EVQLLESGGGLVQPGGSLRLSCAASGFTFSDYYMTWIRQAPGKGLEWVSSISGGSTYYADSRKGRFTISRDNSENTLYLQMNSLRAEDTAVYYCARDFGVAGWFGQYGMDVWGQGTLVTVSSGGGGSGGGGSGGGGSQSVLTQPPSASGTPGQRVTISCTGSSSNIGAGYDVHWYQQLPGTAPKLLIYRSNQRPSGVPDRFSGSKSGTSASLAISGLRSEDEADYYCSSYAGNYNLVFGGGTKLTVLDKGPSVFPLAPEPKSSEVQLLESGGGLVQPGGSLRLSCAASGFTFSSYAMSWVRQAPGKGLEWVANINQDGSEKNYVDSMRGRFTISRDNSKNTLYLQMNSLRAEDTAVYYCAREFDYWGQGTLVTVTSSGGGGSGGGGSGGGGSQSVLAQPPSASGTPGQRVTISCSGSSSNIGSNYVYWYQQLPGTAPKLLIYGNNKRPSGVPDRFSGSKSGTSASLAISGLRSEDEADYYCAAWDDSLNGRVFGGGTKLTVLDKTHTCPPCPAPEAAGAPSVFLFPPKPKDTLMISRTPEVTCVVVDVSHEDPEVKFNWYVDGVEVHNAKTKPREEQYNSTYRVVSVLTVLHQDWLNGKEYKCKVSNKALPAPIEKTISKAKGQPREPQVYTLPPSRDELTKNQVSLTCLVKGFYPSDIAVEWESNGQPENNYKTTPPVLDSDGSFFLYSKLTVDKSRWQQGNVFSCSVMHEALHNHYTQKSLSLSPG
Agonist activity, % Emax BMP9 [1]: 76 % Emax BMP9 | Agonist activity, EC50 [1]: 0.07 nM | Agonist activity, EMAX (RLU) [1]: 2e+06 RLU | pSMAD1 ELISA in HUVEC, RLU 15 minutes, at 0 nM (baseline) [4]: 4.5 RLU | pSMAD1 ELISA in HUVEC, RLU 15 minutes, at 0.4 nM [4]: 4.9 RLU | pSMAD1 ELISA in HUVEC, RLU 15 minutes, at 2 nM [4]: 6.5 RLU | pSMAD1 ELISA in HUVEC, RLU 15 minutes, at 10 nM [4]: 6.7 RLU | pSMAD1 ELISA in HUVEC, RLU 60 minutes, at 0 nM (baseline) [4]: 4.5 RLU | pSMAD1 ELISA in HUVEC, RLU 60 minutes, at 0.4 nM [4]: 35 RLU | pSMAD1 ELISA in HUVEC, RLU 60 minutes, at 2 nM [4]: 26.9 RLU | pSMAD1 ELISA in HUVEC, RLU 60 minutes, at 10 nM [4]: 22.7 RLU | Agonist activity, % Emax BMP9 [2]: 76 % Emax BMP9 | Agonist activity, EC50 [2]: 0.07 nM | Agonist activity, EMAX (RLU) [2]: 2e+06 RLU

B6: PRO003 (bispecific antibody)
chain: EVQLLESGGGLVQPGGSLRLSCAASGFTFSIYAMSWVRQAPGKGLEWVSAISGSGGSTYYADSVKGRFTISRDNSKNTLYLQMNSLRAEDTAVYYCARDFDYWGQGTLVTVTSSGGGGSGGGGSGGGGSQSVLTQPPSASGTPGQRVTISCSGSSSNIGSNYVYWYQQLPGTAPKLLIYGNINRPSGVPDRFSGSKSGTSASLAISGLRSEDEADYYCAAWDDSLNGRVFGGGTKLTVLDKTHTCPPCPAPEAAGAPSVFLFPPKPKDTLMISRTPEVTCVVVDVSHEDPEVKFNWYVDGVEVHNAKTKPREEQYNSTYRVVSVLTVLHQDWLNGKEYKCKVSNKALPAPIEKTISKAKGQPREPQVYTLPPSRDELTKNQVSLTCLVKGFYPSDIAVEWESNGQPENNYKTTPPVLDSDGSFFLYSKLTVDKSRWQQGNVFSCSVMHEALHNHYTQKSLSLSPGGGGGSGGGGSEVQLLESGGGLVQPGGSLRLSCAASGFTFSNAWMNWVRQAPGKGLEWVSSISSSSSYIYYADSVKGRFTISRDNSKNTLYLQMNSLRAEDTAVYYCARAVAAGGMFWGLDQWGQGTLVTVTSSGGGGSGGGGSGGGGSQSVLTQPPSASGTPGQRVTISCSGSRSNIGSNSVHWYQQLPGTAPKLLIYGNSNRPSGVPDRFSGSKSGTSASLAISGLRSEDEADYYCQSYDSSLNDHVVFGGGTKLTVL
Agonist activity, % Emax BMP9 [1]: 47 % Emax BMP9 | Agonist activity, EC50 [1]: 0.1 nM | Agonist activity, EMAX (RLU) [1]: 1.25e+06 RLU | Agonist activity, % Emax BMP9 [2]: 47 % Emax BMP9 | Agonist activity, EC50 [2]: 0.1 nM | Agonist activity, EMAX (RLU) [2]: 1.25e+06 RLU
